Laboratory results as given in patent publication US20240156961A1, “TISSUE-SPECIFIC ANTIGENS FOR CANCER IMMUNOTHERAPY” (priority 2020, published 2024).
Values belong to the molecule of their own block, whether it stands above or below them.

Experiments:
class I HLA molecules = molecular target: T1, class I HLA molecules (Homo sapiens, UniProt P01889); experiment: Targeted mass spectrometry MHC-peptide analysis (SureQuant, heavy isotope-labeled synthetic peptides); conditions: light endogenous vs heavy isotope-labeled synthetic peptide; human prostate specimen; HLA-B*07:02; Skyline software
T1 construct: Frozen cell pellets endogenously expressing MHC molecules (untagged) or biotin acceptor peptide (BAP)-tagged MHC molecules; biotin acceptor peptide (BAP), only in some samples; endogenous in cells; host or cells: Human cell lines (e.g. MDAPCa2b, CAMA1, HCC1500, A375, Expi293, B721) and human tissue (prostate, tumours); some cell samples express BAP-tagged HLA
Experimental: Tissue samples were homogenized in lysis buffer plus benzonase nuclease. All lysates were cleared by centrifugation. […] BAP-tagged samples were biotinylated with 0.56 μM biotin, 1 mM ATP, and 1 μM BirA biotin ligase for 10 minutes, and subsequently incubated with High-Capacity NeutrAvidin Agarose resin for 30 minutes at 4° C. with end-over-end rotation. […] MHC molecules were eluted using 10% acetic acid and peptides were isolated using 10K molecular weight cut-off filtration following filter passivation with 1% bovine serum albumin (BSA). If required, samples were next reduced and alkylated using 5 mM Bond-Breaker TCEP solution at 60° C. for 30 min followed by 15 mM 2-Iodoacetamide for 30 min, protected from light. […] The volume of eluted peptides was reduced using vacuum centrifugation. For targeted analyses, isolated MHC-I peptides were labeled using an isobaric labeling reagent from the tandem mass tag (TMT) 10-plex reagent set (Thermo Fisher). Dried peptides were resuspended in 50 mM HEPES buffer pH 8.5 and combined with 33.3 μg of TMT solubilized in 100% anhydrous acetonitrile. […] Peptides were analyzed using SureQuant targeted data acquisition strategy, where the heavy isotope labeled synthetic peptide serves as a trigger to guide the acquisition of spectrum corresponding to the light (unlabeled) endogenous MHC peptide using mass offset triggering and pseudo-spectral matching. […]

HLA-A*02:01 [1] = molecular target: T2, HLA-A*02:01 (human); experiment: MS validation of HLA class I-presented peptide; samples CAMA1, HCC1500
T2 construct: MHC class I molecule expressed by the cells or tissue sample (endogenous or BAP-tagged), immunopurified before peptide elution
Experimental: (§1) Frozen cell pellets endogenously expressing MHC molecules (untagged) or biotin acceptor peptide (BAP)-tagged MHC molecules were lysed by pipetting and end-over-end rotation for twenty minutes using lysis buffer [20 mM Tris-Cl pH 8, 100 mM NaCl, 6 mM MgCl2, 1.5% (v/v) Triton X-100, 60 mM octyl B-D-glucopyranoside, 0.2 mM of 2-Iodoacetamide, 1 mM EDTA pH 8, 1 mM PMSF, 1× complete EDTA-free protease inhibitor cocktail (Roche)] plus benzonase nuclease for twenty minutes. Tissue samples were homogenized in lysis buffer plus benzonase nuclease. All lysates were cleared by centrifugation. Samples with untagged MHC molecules were subsequently incubated with GammaBind Plus Sepharose Beads (GE Healthcare) pre-charged with a pan-HLA A/B/C antibody (clone W6/32) overnight at 4 C with end-over-end rotation. BAP-tagged samples were biotinylated with 0.56 μM biotin, 1 mM ATP, and 1 μM BirA biotin ligase for 10 minutes, and subsequently incubated with High-Capacity NeutrAvidin Agarose resin for 30 minutes at 4° C. with end-over-end rotation. Following enrichment, beads were washed 2× with wash buffer A [20 mM Tris-Cl pH 8, 100 mM, NaCl, 60 mM octyl B-D-glucopyranoside, 0.2 mM of 2-Iodoacetamide, 1 mM EDTA pH 8] and wash buffer B [10 mM Tris-Cl pH 8] using a positive pressure manifold. […]

HLA-C*04:01 [2] = molecular target: T3, HLA-C*04:01 (human); experiment: MS validation of HLA class I-presented peptide; samples B721, A375
T3 construct: MHC class I molecule expressed by the cells or tissue sample (endogenous or BAP-tagged), immunopurified before peptide elution
Experimental: as §1

HLA-C*07:02 [3] = molecular target: T4, HLA-C*07:02 (human); experiment: MS validation of HLA class I-presented peptide; sample human prostate
T4 construct: MHC class I molecule expressed by the cells or tissue sample (endogenous or BAP-tagged), immunopurified before peptide elution
Experimental: (§2) Frozen cell pellets endogenously expressing MHC molecules (untagged) or biotin acceptor peptide (BAP)-tagged MHC molecules were lysed by pipetting and end-over-end rotation for twenty minutes using lysis buffer [20 mM Tris-Cl pH 8, 100 mM NaCl, 6 mM MgCl2, 1.5% (v/v) Triton X-100, 60 mM octyl B-D-glucopyranoside, 0.2 mM of 2-Iodoacetamide, 1 mM EDTA pH 8, 1 mM PMSF, 1× complete EDTA-free protease inhibitor cocktail (Roche)] plus benzonase nuclease for twenty minutes. Tissue samples were homogenized in lysis buffer plus benzonase nuclease. All lysates were cleared by centrifugation. Samples with untagged MHC molecules were subsequently incubated with GammaBind Plus Sepharose Beads (GE Healthcare) pre-charged with a pan-HLA A/B/C antibody (clone W6/32) overnight at 4 C with end-over-end rotation. BAP-tagged samples were biotinylated with 0.56 μM biotin, 1 mM ATP, and 1 μM BirA biotin ligase for 10 minutes, and subsequently incubated with High-Capacity NeutrAvidin Agarose resin for 30 minutes at 4° C. with end-over-end rotation. Following enrichment, beads were washed 2× with wash buffer A [20 mM Tris-Cl pH 8, 100 mM, NaCl, 60 mM octyl B-D-glucopyranoside, 0.2 mM of 2-Iodoacetamide, 1 mM EDTA pH 8] and wash buffer B [10 mM Tris-Cl pH 8] using a positive pressure manifold. MHC molecules were eluted using 10% acetic acid and peptides were isolated using 10K molecular weight cut-off filtration following filter passivation with 1% bovine serum albumin (BSA). If required, samples were next reduced and alkylated using 5 mM Bond-Breaker TCEP solution at 60° C. for 30 min followed by 15 mM 2-Iodoacetamide for 30 min, protected from light. Samples were next acidified using 100% formic acid and desalted using 10 mg Sep-Pak tC18 μElution plates with peptide elutions at 15% acetonitrile and 50% acetonitrile, which were subsequently pooled. The volume of eluted peptides was reduced using vacuum centrifugation.

HLA-B*07:02 [4] = molecular target: T5, HLA-B*07:02 (human); experiment: as above
T5 construct: MHC class I molecule expressed by the cells or tissue sample (endogenous or BAP-tagged), immunopurified before peptide elution
Experimental: as §2

HLA-A*24:02 [5] = molecular target: T6, HLA-A*24:02 (human); experiment: MS validation of HLA class I-presented peptide (validation cell empty in Table 1C); sample human prostate
T6 construct: MHC class I molecule expressed by the cells or tissue sample (endogenous or BAP-tagged), immunopurified before peptide elution

HLA-C*04:01 [6] = molecular target: T3, HLA-C*04:01; experiment: MS validation of HLA class I-presented peptide; sample human prostate
Experimental: as §2

HLA-A*02:01 [7] = molecular target: T2, HLA-A*02:01; experiment: MS validation of HLA class I-presented peptide; multiple cell lines and tumor samples
Experimental: as §1

HLA-C*07:01 [8] = molecular target: T7, HLA-C*07:01 (human); experiment: MS validation of HLA class I-presented peptide; samples MDAPCa2b, human prostate, breast cancer
T7 construct: MHC class I molecule expressed by the cells or tissue sample (endogenous or BAP-tagged), immunopurified before peptide elution
Experimental: as §1

HLA-B*07:02 [9] = molecular target: T5, HLA-B*07:02; experiment: MS validation of HLA class I-presented peptide (second allele under Allele (MS)); samples MDAPCa2b, human prostate, breast cancer
Experimental: as §1

HLA-C*07:01 [10] = molecular target: T7, HLA-C*07:01; experiment: MS validation of HLA class I-presented peptide; samples MDAPCa2b, human prostate
Experimental: as §1

HLA-C*07:02 [11] = molecular target: T4, HLA-C*07:02; experiment: MS validation of HLA class I-presented peptide (second allele under Allele (MS)); samples MDAPCa2b, human prostate
Experimental: as §1

HLA-A*24:02 [12] = molecular target: T6, HLA-A*24:02; experiment: MS validation of HLA class I-presented peptide; sample human prostate
Experimental: as §2

HLA-A*02:01 [13] = molecular target: T2, HLA-A*02:01; experiment: MS validation of HLA class I-presented peptide; sample A375
Experimental: as §1

HLA-A*02:01 [14] = molecular target: T2, HLA-A*02:01; experiment: MS validation of HLA class I-presented peptide; samples lung tumor, GBM, OvCa13, breast tumor, A375, MSV000082648
Experimental: as §1

HLA-A*01:01 [15] = molecular target: T8, HLA-A*01:01 (human); experiment: MS validation of HLA class I-presented peptide; samples GBM, A375
T8 construct: MHC class I molecule expressed by the cells or tissue sample (endogenous or BAP-tagged), immunopurified before peptide elution
Experimental: as §1

HLA-A*01:01 [16] = molecular target: T8, HLA-A*01:01; experiment: MS validation of HLA class I-presented peptide; sample human prostate
Experimental: as §2

HLA-C*06:02 [17] = molecular target: T9, HLA-C*06:02 (human); experiment: as above
T9 construct: MHC class I molecule expressed by the cells or tissue sample (endogenous or BAP-tagged), immunopurified before peptide elution
Experimental: as §2

HLA-C*07:02 [18] = molecular target: T4, HLA-C*07:02; experiment: MS validation of HLA class I-presented peptide (second allele under Allele (MS)); sample human prostate
Experimental: as §1

HLA-A*02:01 [19] = molecular target: T2, HLA-A*02:01; experiment: MS validation of HLA class I-presented peptide; samples CD165, HCC1500, CAMA1
Experimental: as §1

HLA-C*04:01 [20] = molecular target: T3, HLA-C*04:01; experiment: MS validation of HLA class I-presented peptide; sample CAMA1
Experimental: as §1

HLA-A*02:01 [21] = molecular target: T2, HLA-A*02:01; experiment: MS validation of HLA class I-presented peptide; sample human prostate
Experimental: as §2

HLA-C*06:02 [22] = molecular target: T9, HLA-C*06:02; experiment: MS validation of HLA class I-presented peptide; sample MDAPCa2b
Experimental: as §1

Molecule: HPEYNRPLL (listed as Homo sapiens)
dot product similarity score of peptide fragment ions (class I HLA molecules): 0.992

Molecule: SLSKILDTV
binding result (HLA-A*02:01 [1]): binds

Molecule: SVPNKALEL
binding result (HLA-C*04:01 [2]): binds

Molecule: LRPGDDSTL (4002 is used here)
binding result (HLA-C*07:02 [3]): binds

Molecule: MPALPMVL
binding result (HLA-B*07:02 [4]): binds

Molecule: VFQVSHSF
binding result (HLA-C*07:02 [3]): binds

Molecule: GYLQGLVSF
binding result (HLA-A*24:02 [5]): binds

Molecule: TWIAPPLQV
binding result (HLA-C*04:01 [6]): binds

Molecule: SLLQHLIGL
binding result (HLA-A*02:01 [7]): binds

Molecule: HPEYNRPLL
binding result (HLA-C*07:01 [8]): binds | binding result (HLA-B*07:02 [9]): binds

Molecule: QRVPVSHSF
binding result (HLA-C*07:01 [10]): binds | binding result (HLA-C*07:02 [11]): binds

Molecule: LFHPEDTGQVF
binding result (HLA-A*24:02 [12]): binds

Molecule: KVDELAHFL
binding result (HLA-A*02:01 [13]): binds

Molecule: GVYDGREHTV
binding result (HLA-A*02:01 [14]): binds

Results, then the molecule that gave them:

binding result (HLA-A*01:01 [15]): binds
Molecule: EVDPASNTY

binding result (HLA-A*01:01 [16]): binds
Molecule: YSEKVTEFML

binding result (HLA-C*06:02 [17]): binds | binding result (HLA-C*07:02 [18]): binds
Molecule: NRPLLANDL

binding result (HLA-A*02:01 [1]): binds
Molecule: SLDQKLFQL

binding result (HLA-A*02:01 [13]): binds
Molecule: KVLEHVVRV

binding result (HLA-A*02:01 [19]): binds
Molecule: LLSHGAVIEV

binding result (HLA-C*04:01 [20]): binds
Molecule: SIPTKALEL

binding result (HLA-A*02:01 [21]): binds
Molecule: LLANGRMPTV

binding result (HLA-C*06:02 [22]): binds
Molecule: AYSEKVTEF

binding result (HLA-C*06:02 [17]): binds | binding result (HLA-C*07:02 [18]): binds
Molecule: IRNKSVILL
